This note sets out measurements from patent US20250296984A1, “THERAPEUTIC AND DIAGNOSTIC AGENTS AND USES THEREOF” (priority 2022, published 2025).

Assay [1] addresses T1, HCMV US28 (strain DB) on CHO-US28-A1 cells (Human cytomegalovirus, UniProt P69332, D170N/D19A).
T1 construct: expressed in transfected cells; host or cells: CHO-K1 (vector pCDH-EF1a-MCS)
The experiment in a line: FACS surface binding to CHO-US28-A1 cells. The protocol:
Plasmid construction was performed to create a US28-overexpressing cell line. The US28 sequence, identical to HCMV DB strain (Acc. Number: KT959235; SEQ ID No. 5 of this application), fused to a 6His tag at its C terminal part, was inserted into the pCDH-EF1a-MCS vector (Creative Biolabs, Shirley, NY 11967, USA). The plasmid construct was transfected to CHO-K1 cell line. The cells were collected 48 hours after transfection. The cell line was named as CHO-US28-A1-6His and its protein sequence (SEQ ID NO: 47) is the following:
Flowcytometry was used to analyze cell surface binding by the US28 antibodies. Upon cell harvest, adherent non-infected and US28 overexpressing or HCMV infected cells were washed three times with cell staining buffer (phosphate-buffered saline (PBS (Amresco, Cleveland, 44139, USA) added 0.5% BSA and 0.05% Sodium Azide (NaN3)). The cells were trypisinized and then resuspended in DMEM with 10% FBS to inhibit the action of trypsin. The cells were then pelleted at 400×g for 10 minutes and washed three times in cell staining buffer. Cell viability and cell concentration were measured by tryphan blue viability assay and a cell counter (Countess, Invitrogen, Carlsbad, CA 92008, USA). The cell suspension was adjusted to 1×10^6 cells/mL with ice-cold cell staining buffer. The cells were blocked in 1 ml 10% FBS or 1% BSA in PBS per 1×10^6 cells, vortexed briefly, and incubated for 10-30 minutes to eliminate non-specific staining. The cells were then stained with the respective antibodies and appropriate negative controls.
The primary antibodies used were I) 13-5G6-1D3 (50 μg/ml) as a positive control; II) Monovalent and Bivalent VUN100 ScFvs 1:1 (50 μg/ml); III) test antibodies for the specified subclones (1:5).
The primary antibodies used were I) 13-5G6-1D3 1:50 to 50 μg/ml; and II) Commercial US28 polyclonal antibody (50 μg/ml), III) Monovalent and Bivalent VUN100 ScFvs (50 μg/ml) and for certain experiments, the appropriate isotype controls were included.
In both cases (ECD1 and ECD3), the antibodies were added to the cells, vortexed and incubated on ice for 15 to 30 minutes up to overnight and washed twice with cell staining buffer to remove any unbound antibodies. In addition, the CMV Immediate Early Antigen (IE) Alexa488 Ab, MAB810X, 1:50 was included to verify HCMV infected cells in one of the experiments. Because it binds to an intracellular, HCMV encoded protein, it was added after permeabilizing the cells in 70% ethanol for 30 min on ice.
1:500-1:5000 in cell staining buffer of the appropriate fluorescent-conjugated appropriate secondary antibodies were added and incubated on ice for 15-20 min in the dark. The cells were washed three times to remove any unbound antibodies. The cells were then fixed with 0.5% paraformaldehyde (PFA) for 30 min on ice and resuspended in 200-500 μL cell staining buffer for final flow cytometric analysis using an Accuri C6 flow cytometry system (BD Biosciences, San Jose, CA 95131, USA). Data analyses were performed using FlowJo software v8.8 (Treestar Inc. Ashland, OR 97520, USA).
Background levels were determined using the respective secondary antibodies (anti-mFc-FITC for the subclones, or anti-myc-PE for the VUN100 molecules) with CHO cells and CHO-US28 cells. Given that US28 is expressed on the cell surface, the cells were non-permeabilised for these experiments.

Assay [2] has as its system human astrocytoma and glioblastoma tissues. The experiment in a line: IHC in human brain cancer cohort (astrocytoma grade 1-3, glioblastoma grade 4, NAT). More on the design: key to IHC staining grade: stained negative (0); positive cytoplasmic staining (1+); moderately positive cytoplasmic staining (2+). The source says:
FIG. 17. Human glioblastoma tissues were studied with the US28-13-5G6-1D3 rAb and MAB810R antibodies by using IHC and with ISH analysis for HCMV DNA. […] The staining was present in several cells in each positive sample which was different from the breast cancer samples. However, the staining of the glia cells was weaker than for the US28-13-5G6-1D3 rAb. C. The brain tissue NAT is negative for 13-5G6-1D3 staining. […] The arrows indicate these signals. E. The staining of the same Gliobastoma grade IV sample is negative for the IgG antibody. F. The ISH analysis is negative for the same brain tissue NAT sample. The positive glia cells are indicated with arrows in the non-colour version of these figures. A colour version of FIG. 17 is provided on the page after the non-colour version.
FIG. 18. US28-13-5G6-1D3 staining of the human brain cancer cohort containing human astrocytoma grade 1-3 and glioblastoma grade 4 and NAT tissues. All the astrocytoma grade 1 (n=4) stained negative (0). Of the grade 2-3 astrocytomas, 6 stained negative (0), 37 had positive cytoplasmic staining (1+), and 2 had moderately positive cytoplasmic staining (2+). […] The ISH analysis confirmed presence of nuclear HCMV DNA in tumor cells of all tumor samples. Only 3 of 10 NAT samples were HCMV DNA positive.

The subject of a further assay is pancreatic tissue. Put plainly: IHC on pancreatic tissues. On the set-up: species or system human. The source says:
FIG. 20. Some pancreatic tissues were studied to exclude general off-target binding of the 28-13-5G6-1D3 to this tissue type. […] The HCMV ISH is negative indicating absence of viral HCMV DNA in the normal pancreatic tissue sample. […] Thus, the same sample is positive for both HCMV proteins US28 and IE and HCMV DNA but negative for the negative control IgG indicating specific antibody binding. The US28 protein staining is cytoplasmic as expected, the IE protein is mostly located in the cell nucleus as expected since it is a nuclear protein. […] A colour version of FIG. 20 is also provided.

Marks after values point to notes of the source that are not given here. Some results are limits rather than exact numbers.

B1: 13-5G6-1D3 rAb: recombinant antibody product of US28-13-5G6-1D3 produced in HEK293-F cells (antibody)
heavy: EVKLVESGGGLVQPGGSLRLACATSGFTFTDYYMSWVRQPPGKALEWLGFIRSKANGYTTEYSASVKGRFTISRDNSQSILYLQMNTLRSEDSATYYCARDERRTAWLAYWGQGTLVTVSAAKTTPPSVYPLAPGSAAQTNSMVTLGCLVKGYFPEPVTVTWNSGSLSSGVHTFPAVLQSDLYTLSSSVTVPSSTWPSETVTCNVAHPASSTKVDKKIVPRDCGCKPCICTVPEVSSVFIFPPKPKDVLTITLTPKVTCVVVDISKDDPEVQFSWFVDDVEVHTAQTQPREEQFNSTFRSVSELPIMHQDWLNGKEFKCRVNSAAFPAPIEKTISKTKGRPKAPQVYTIPPPKEQMAKDKVSLTCMITDFFPEDITVEWQWNGQPAENYKNTQPIMDTDGSYFIYSKLNVQKSNWEAGNTFTCSVLHEGLHNHHTEKSLSHSPGK
light: DVLMTQTPLSLPVSLGDQASISCRSSQSIVHSNGNTYLDWYLQKPGQSPKLLIYKVSNRFSGVPDRFSGSGSGTDFTLKISRVEAEDLGVYYCFQGSHVPTWTFGGGTKLEIKRADAAPTVSIFPPSSEQLTSGGASVVCFLNNFYPKDINVKWKIDGSERQNGVLNSWTDQDSKDSTYSMSSTLTLTKDEYERHNSYTCEATHKTSTSPIVKSFNRNEC
On to B1, for which the “Binding Specificity (ratio of surface binding)” value in assay [1] (CHO-US28-A1 cells compared with US28 negative control CHO cells) is on record as 21.5*. In addition, in assay [1] (FIG. 7), the “higher surface binding to US28 expressing CHO cells than control CHO cells” value is given as over 21 times.

B2: US28-13-5G6-1D3: monoclonal antibody against ECD3 of HCMV US28; VH SEQ ID NO: 12, VL SEQ ID NO: 18; rAb is the recombinant product (antibody, V domains shown)
VH: EVKLVESGGGLVQPGGSLRLACATSGFTFTDYYMSWVRQPPGKALEWLGFIRSKANGYTTEYSASVKGRFTISRDNSQSILYLQMNTLRSEDSATYYCARDERRTAWLAYWGQGTLVTVSA
VL: DVLMTQTPLSLPVSLGDQASISCRSSQSIVHSNGNTYLDWYLQKPGQSPKLLIYKVSNRFSGVPDRFSGSGSGTDFTLKISRVEAEDLGVYYCFQGSHVPTWTFGGGTKLEIK
modifications: Mature form of VH sequence of 1D3, without the leader sequence; Mature form of VL sequence of 1D3, without the leader sequence
notes: monoclonal antibody against ECD3 of HCMV US28; rAb is the recombinant product
B2 showed an IHC staining grade in assay [2] (all astrocytoma grade 1 (n=4)) of 0. Besides, in assay [2] (grade 2-3 astrocytomas), the “number of tumors stained negative (0)” value was 6, the “number of tumors with moderately positive cytoplasmic staining (2+)” value is given as 2 and the “number of tumors with positive cytoplasmic staining (1+)” value is 37. For the same molecule, the “binding to CHO-US28-A1 cells relative to any of the other 9 clones” value in assay [1] (1:50 w/v Ab dilution) is given as 8-10 fold. Further, the CHO-US28-A1 cells bound/stained result in assay [1] (comparison with commercial US28 Ab, FIG. 11A) is reported as “more than 50%”.

B3: 13-5G6-1D3: mouse monoclonal IgG1 kappa antibody against US28 ECD3; VH SEQ ID NO: 12, VL SEQ ID NO: 18 (antibody, V domains shown)
VH: EVKLVESGGGLVQPGGSLRLACATSGFTFTDYYMSWVRQPPGKALEWLGFIRSKANGYTTEYSASVKGRFTISRDNSQSILYLQMNTLRSEDSATYYCARDERRTAWLAYWGQGTLVTVSA
VL: DVLMTQTPLSLPVSLGDQASISCRSSQSIVHSNGNTYLDWYLQKPGQSPKLLIYKVSNRFSGVPDRFSGSGSGTDFTLKISRVEAEDLGVYYCFQGSHVPTWTFGGGTKLEIK
modifications: Mature form of VH sequence of 1D3, without the leader sequence; Mature form of VL sequence of 1D3, without the leader sequence
As to B3, the “IHC staining of brain tissue NAT” value in assay [2] was “negative”. Moreover, the “IHC staining of normal pancreatic tissue” value with pancreatic tissue (HCMV ISH negative sample) is “negative staining”. For the same molecule, in the assay on pancreatic tissue (HCMV ISH positive sample), the “IHC staining of pancreatic tissue sample from another patient” value was “positive”.
